Target: T1, PD-L1 on PD-L1-positive target cell lines DU-145 and U-251 (human, UniProt Q9NZQ7 19-290)
T1 construct: also called Programmed death ligand 1; CD274
Assay: flow cytometry on DU-145 and U-251 cells, shown as % binding of max over time at 4 C or 37 C
Protocol: Data is shown as % binding of max by normalizing the obtained MFI to the highest MFI measured. […] Data is shown as mean ± SD of one experiment measured in technical triplicates.
Subsequently, stained target cells were incubated for indicated time points at either 4° C. or 37° C. Binding of PD-L1-specific TMs was analyzed via flow cytometry using an PE-labeled α-His Ab.

T1 sequence (Q9NZQ7 19-290): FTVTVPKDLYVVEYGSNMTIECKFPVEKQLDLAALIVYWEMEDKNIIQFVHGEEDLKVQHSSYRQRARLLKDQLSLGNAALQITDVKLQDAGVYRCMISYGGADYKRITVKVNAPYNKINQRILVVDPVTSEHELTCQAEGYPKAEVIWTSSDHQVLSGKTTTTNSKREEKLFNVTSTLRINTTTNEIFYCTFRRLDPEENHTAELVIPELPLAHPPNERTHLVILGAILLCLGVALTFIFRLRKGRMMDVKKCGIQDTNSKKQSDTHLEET

binding result: binds
B1: TM-PD-L1-scFv5 (scFv)
scFv: GQVQLVQSGAEVKKPGASVKVSCKASGYTFTDYGFSWVRQAPGQGLEWMGWITAYNGNTNYAQKLQGRVTMTTDTSTSTVYMELRSLRSDDTAVYYCARDYFYGMDVWGQGTTVTVSSGGGGSGGGGSGGGGSEIVLTQSPATLSLSPGERATLSCRASQSVSSYLVWYQQKPGQAPRLLIYDASNRATGIPARFSGSGSGTDFTLTISSLEPEDFAVYYCQQRSNWPRTFGQGTKVEIKAAAKPLPEVTDEYARGGPGGGGSHHHHHHHH
notes: also called TMPD-L1v5

Source: patent publication US20230183351A1 (AVENCELL EUROPE, published 2023)
